# Measured values taken from PMC10514974, “The NAC transcription factor MdNAC4 positively regulates nitrogen deficiency-induced leaf senescence by enhancing ABA biosynthesis in apple”.
# B1: MdNCED2 mutant probe (dsDNA)
# DNA 1: TAAATCCACGACGGGGTCTCTCATG
# DNA 2: CATGAGAGACCCCGTCGTGGATTTA
# B2: MdNCED2 promoter probe P4 (ABRE) (dsDNA)
# DNA 1: TAAATCCACCACGTGGTCTCTCATG
# DNA 2: CATGAGAGACCACGTGGTGGATTTA
# B3: MdSAG39 mutant probe (dsDNA)
# DNA 1: TTTTGTAAGGGACGGACCACGCTGA
# DNA 2: TCAGCGTGGTCCGTCCCTTACAAAA
# B4: MdSAG39 promoter probe P2 (ABRE) (dsDNA)
# DNA 1: TTTTGTAAGGCACGTACCACGCTGA
# DNA 2: TCAGCGTGGTACGTGCCTTACAAAA
# Key:
# Conditions in all cases: protein: recombinant; tags: GST (pGEX4T-1); label: biotin; blunt
# MdNAC4-GST [1] = molecular target: T1, MdNAC4-GST (apple, UniProt B6DXL4 1-350); assay: EMSA; LightShift binding buffer, 30 min at 24 °C in the dark; biotin-labeled probes; salt and pH not stated
# T1 sequence: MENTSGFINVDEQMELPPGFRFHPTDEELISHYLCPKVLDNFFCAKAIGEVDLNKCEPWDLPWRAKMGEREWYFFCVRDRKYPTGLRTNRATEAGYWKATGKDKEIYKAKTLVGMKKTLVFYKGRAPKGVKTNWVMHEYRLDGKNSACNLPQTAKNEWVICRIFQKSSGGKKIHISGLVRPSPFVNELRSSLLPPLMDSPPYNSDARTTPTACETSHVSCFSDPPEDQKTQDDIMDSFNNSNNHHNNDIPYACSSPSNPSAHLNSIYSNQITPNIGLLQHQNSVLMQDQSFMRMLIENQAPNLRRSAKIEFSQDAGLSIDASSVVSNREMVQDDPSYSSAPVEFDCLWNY
# MdNAC4-GST [2] = molecular target: T1, MdNAC4-GST; assay: EMSA; unlabeled competitor 5x, 50x, 100x progressively abolished binding; LightShift binding buffer, 30 min at 24 °C in the dark; biotin-labeled probes; salt and pH not stated
# MdNAC4-GST [3] = molecular target: T1, MdNAC4-GST; assay: EMSA; unlabeled competitor 5x, 50x, 100x abolished binding; LightShift binding buffer, 30 min at 24 °C in the dark; biotin-labeled probes; salt and pH not stated
Binder,binding result (MdNAC4-GST [1]),further results
B1,no binding,
B2,,binding result (MdNAC4-GST [2]): binds
B3,no binding,
B4,,binding result (MdNAC4-GST [3]): binds
